In patent US20240287161A1 (NATIONAL UNIVERSITY CORPORATION TOTTORI UNIVERSITY, published 2024):

Molecular target: T1, HCoV-229E trimeric S protein (amino acids 12-1109) with T4 foldon, histidine tag and strep-tag (HCoV-229E, UniProt P15423 12-1112)
T1 chain: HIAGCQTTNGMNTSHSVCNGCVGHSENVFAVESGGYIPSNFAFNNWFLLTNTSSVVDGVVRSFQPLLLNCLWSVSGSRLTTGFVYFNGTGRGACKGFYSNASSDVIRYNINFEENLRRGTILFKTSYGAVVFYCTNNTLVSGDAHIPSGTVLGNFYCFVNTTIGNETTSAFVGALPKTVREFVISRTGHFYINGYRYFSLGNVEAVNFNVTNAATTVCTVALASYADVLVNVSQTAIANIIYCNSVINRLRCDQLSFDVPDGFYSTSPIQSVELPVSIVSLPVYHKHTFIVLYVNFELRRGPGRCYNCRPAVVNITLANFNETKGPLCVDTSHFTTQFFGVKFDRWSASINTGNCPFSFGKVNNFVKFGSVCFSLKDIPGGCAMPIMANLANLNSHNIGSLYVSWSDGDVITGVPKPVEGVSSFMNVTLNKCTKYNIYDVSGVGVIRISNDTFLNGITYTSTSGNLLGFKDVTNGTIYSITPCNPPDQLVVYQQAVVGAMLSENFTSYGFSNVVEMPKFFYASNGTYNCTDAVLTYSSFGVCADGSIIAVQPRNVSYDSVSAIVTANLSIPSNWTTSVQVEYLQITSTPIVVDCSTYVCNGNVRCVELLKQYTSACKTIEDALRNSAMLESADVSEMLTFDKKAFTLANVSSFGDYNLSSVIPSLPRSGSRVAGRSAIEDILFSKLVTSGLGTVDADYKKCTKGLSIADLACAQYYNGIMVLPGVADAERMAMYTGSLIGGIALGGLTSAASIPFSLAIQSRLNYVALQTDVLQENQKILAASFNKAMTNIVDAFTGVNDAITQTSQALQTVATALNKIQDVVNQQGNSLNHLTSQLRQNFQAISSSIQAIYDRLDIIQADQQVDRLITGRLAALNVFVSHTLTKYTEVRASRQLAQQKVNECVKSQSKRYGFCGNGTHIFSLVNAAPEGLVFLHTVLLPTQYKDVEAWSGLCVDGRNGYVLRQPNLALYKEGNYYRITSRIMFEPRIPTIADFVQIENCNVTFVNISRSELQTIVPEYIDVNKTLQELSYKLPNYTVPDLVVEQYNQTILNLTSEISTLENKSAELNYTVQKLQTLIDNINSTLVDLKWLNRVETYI
Experiment: ELISA on coated S-trimeric antigen, anti-human IgG-HRP [Human IgG1, NT-108]

B1: NT-108 (recombinant human IgG1/kappa antibody) (antibody, V domains shown)
VH: EVQLQQSGPGLVKPSQTLSLTCSISGDSVSSNSAAWNWIRQSPSRGLEWLGRTYYRSKWYNDYAGTVKSRIAINPDTSKNQFSLHLNSVTPEDTAVYFCARVISVAGYAFDIWGQGTMVTVSS
VL: EIVLTQSPGTLSLSPGERATLSCRASQSVSSTFLAWYQQKPGQAPRLLIYGASYMATGIPDRFSGSGSGTDFTLTISRLEPEDFAVYYCQQYGSSLTFGGGTKLEIK
B1: no binding (tested: 1000 ng/ml).
